Reference: US20240317834A1, “COMPOSITIONS AND METHODS FOR NEUROLOGICAL DISEASES” (CODA BIOTHERAPEUTICS, INC., priority 2020, published 2024)

Test system: Lenti-X 293T cells
Experiment: YFP fluorescence quenching anion reporter plate reader assay of engineered receptors stimulated with acetylcholine or a non-native ligand
Assay type: cell-based
Details: for percent quench of YFP fluorescence, 10 uM ach: acetylcholine 10 uM; for percent quench of YFP fluorescence, 100 uM ach: acetylcholine 100 uM; for percent quench of YFP fluorescence, 1 mM ach: acetylcholine 1 mM; for percent quench of YFP fluorescence, 3 mM ach: acetylcholine 3 mM
Text: To screen these mutant LGICs for those having novel response profiles to ligands, an anion reporter assay was developed to assess the function of the LGICs in a high throughput format. In this assay, cells expressing a YFP reporter whose fluorescence is quenched in the presence of anion are transfected with DNA encoding the channel of interest. Upon exposure to ligand, channels that are activated will flux anion, resulting in a dose-dependent quench of the YFP that can be detected on a plate reader. The greater the quench signal (i.e., the more positive the value), the higher the ligand activity on the receptor is.
Lenti-X 293T cells (LX293T, Clontech) were maintained in DMEM containing 10% FBS and 1% penicillin/streptomycin (Invitrogen). […] Two days before assay, cells were split at a density of 20,000 cells/well in a 96-well tissue culture plate coated with poly-d lysine (Thermo Scientific). The next day, the cells were transiently transfected with 0.1 μg of DNA per well using standard Fugene protocol (Promega). On the day of assay, cells were washed 2 times in 1× extracellular solution (1×ECS: 140 mM NaCl, 5 mM KCl, 1 mM MgCl2, 2 mM CaCl2), 10 mM HEPES, 10 mM glucose, pH 7.2, mOsms 300). After the last wash, 100 μL of 1×ECS was added to the wells and the plate was incubated at 37° C. for 30 min. While incubating the plate, the drugs were diluted to a 2× concentration in 1×ECS-NaI (same components as 1×ECS except the 140 mM NaCl was replaced by 140 mM NaI). The plates were then read on a Flexstation3 (Molecular Devices). Each well, 8 wells at a time, of the plate is read for 2 min using a Flexstation3 (Molecular Devices) as follows: 1) a baseline YFP fluorescence is read for 17 sec, 2) 100 μL of ligand is added, and 3) the changes in YFP fluorescence are then measured every 1.3 sec for 1 minute and 43 seconds. The percent quench is calculated from the average fluorescence of the last 10 seconds of the read divided by the baseline average of the first 15 seconds prior to the ligand addition.
FIGS. 1A-1J provide heat maps of the percent quench of YFP fluorescence following stimulation by various doses of either acetylcholine or the non-native ligand as indicated in the Figures. CODA71 (SEQ ID NO: 33) was used as a control, and CODA75 (SEQ ID NO: 29, a non-responding chimeric engineered receptor) was used as the negative control. Quenching of the fluorescence signal, as indicated by blue shaded cells, indicate the level of engineered receptor activation by the non-native ligand at that concentration.

B1: CODA238: engineered chimeric LGIC receptor, R101W in SEQ ID NO: 33 (protein)
chain: MRCSPGGVWLALAASLLHVSLQGEFQRKLYKELVKNYNPLERPVANDSQPLTVYFSLSLLQIMDVDEKNQVLTTNIWLQMSWTDHYLQWNVSEYPGVKTVWFPDGQIWKPDILLYNSADERFDATFHTNVLVNSSGHCQYLPPGIFKSSCPMDLKNFPMDVQTCKLKFGSWSYGGWSLDLQMQEADISGYIPNGEWDLVGIPGKRSERFYECCKEPYPDVTFTVTMRRRMGYYLIQMYIPSLLIVILSWISFWINMDAAPARVGLGITTVLTMTTQSSGSRASLPKVSYVKAIDIWMAVCLLFVFSALLEYAAVNFVSRQHKELLRFRRKRRHHKSPMLNLFQEDEAGEGRFNFSAYGMGPACLQAKDGISVKGANNSNTTNPPPAPSKSPEEMRKLFIQRAKKIDKISRIGFPMAFLIFNMFYWIIYKIVRREDVHNQ
modifications: synthetic sequence of chimeric LGIC
- YFP fluorescence quenching using CNL001 (1 nM CNL001, first column): 32.42%
- YFP fluorescence quenching using CNL001 (1 nM CNL001, second column): 54.768%
- YFP fluorescence quenching using TC-5619/Bradanicline (3 nM brd): 74.7%
- YFP fluorescence quenching using Varenicline (3 nM var, first column): 17.896
- YFP fluorescence quenching using Varenicline (3 nM var, second column): 12.564
- YFP fluorescence quenching using CNL001 (10 nM CNL001, first column): 75.149%
- YFP fluorescence quenching using CNL001 (10 nM CNL001, second column): 75.339%
- YFP fluorescence quenching using TC-5619/Bradanicline (30 nM brd): 76.78%
- YFP fluorescence quenching using Facinicline (30 nM fac): −19.61
- YFP fluorescence quenching using Varenicline (30 nM var, first column): 16.263
- YFP fluorescence quenching using Varenicline (30 nM var, second column): 22.117
- YFP fluorescence quenching using CNL001 (50 nM CNL001, first column): 75.881%
- YFP fluorescence quenching using CNL001 (50 nM CNL001, second column): 77.844%
- YFP fluorescence quenching using ABT-126 (50 nM abt): −14.97%
- YFP fluorescence quenching using CNL001 (100 nM CNL001, first column): 78%
- YFP fluorescence quenching using CNL001 (100 nM CNL001, second column): 78.575%
- YFP fluorescence quenching using CNL002 (100 nM CNL002): 2.95%
- YFP fluorescence quenching using ABT-126 (100 nM abt): −14.66%
- YFP fluorescence quenching using AZD-0328 (100 nM azd0328): 22.94%
- YFP fluorescence quenching using ABT-126 (300 nM abt): −16.35%
- YFP fluorescence quenching using AZD-0328 (300 nM azd0328): 75.38%
- YFP fluorescence quenching using TC-5619/Bradanicline (300 nM brd): 77.01%
- YFP fluorescence quenching using Facinicline (300 nM fac): 76.54
- YFP fluorescence quenching using Varenicline (300 nM var, first column): 77.492
- YFP fluorescence quenching using Varenicline (300 nM var, second column): 79.056
- YFP fluorescence quenching using Varenicline (500 nM var, first column): 80.186
- YFP fluorescence quenching using Varenicline (500 nM var, second column): 80.065
- YFP fluorescence quenching using CNL001 (1 uM CNL001, first column): 81.126%
- YFP fluorescence quenching using CNL001 (1 uM CNL001, second column): 79.482%
- YFP fluorescence quenching using CNL002 (1 uM CNL002): 67.93%
- YFP fluorescence quenching using ABT-126 (1 uM abt): 50.02%
- YFP fluorescence quenching using TC-6987 (1 uM tc6987): 72.47
- YFP fluorescence quenching using Varenicline (1 uM var, first column): 81.263
- YFP fluorescence quenching using Varenicline (1 uM var, second column): 80.702
- YFP fluorescence quenching using TC-6987 (10 uM tc6987): 72.04
- YFP fluorescence quenching using CNL002 (30 uM CNL002): 73.02%
- YFP fluorescence quenching using AZD-0328 (30 uM azd0328): 81.8%
- YFP fluorescence quenching using Facinicline (30 uM fac): 87.94
- YFP fluorescence quenching using TC-6987 (500 uM tc6987): 76.56
- percent quench of YFP fluorescence, 10 uM ach: −16.58%
- percent quench of YFP fluorescence, 100 uM ach: 75.18%
- percent quench of YFP fluorescence, 1 mM ach: 78.99%
- percent quench of YFP fluorescence, 3 mM ach: 75.74%

B2: CODA282: engineered chimeric LGIC receptor, Y115D in SEQ ID NO: 33 (protein)
chain: MRCSPGGVWLALAASLLHVSLQGEFQRKLYKELVKNYNPLERPVANDSQPLTVYFSLSLLQIMDVDEKNQVLTTNIWLQMSWTDHYLQWNVSEYPGVKTVRFPDGQIWKPDILLDNSADERFDATFHTNVLVNSSGHCQYLPPGIFKSSCPMDLKNFPMDVQTCKLKFGSWSYGGWSLDLQMQEADISGYIPNGEWDLVGIPGKRSERFYECCKEPYPDVTFTVTMRRRMGYYLIQMYIPSLLIVILSWISFWINMDAAPARVGLGITTVLTMTTQSSGSRASLPKVSYVKAIDIWMAVCLLFVFSALLEYAAVNFVSRQHKELLRFRRKRRHHKSPMLNLFQEDEAGEGRFNFSAYGMGPACLQAKDGISVKGANNSNTTNPPPAPSKSPEEMRKLFIQRAKKIDKISRIGFPMAFLIFNMFYWIIYKIVRREDVHNQ
modifications: synthetic sequence of chimeric LGIC
- YFP fluorescence quenching using CNL001 (1 nM CNL001, first column): −15.837%
- YFP fluorescence quenching using CNL001 (1 nM CNL001, second column): −6.519%
- YFP fluorescence quenching using TC-5619/Bradanicline (1 nM brd): −0.54%
- YFP fluorescence quenching using TC-5619/Bradanicline (3 nM brd): −7.22%
- YFP fluorescence quenching using Varenicline (3 nM var, first column): 2.111
- YFP fluorescence quenching using Varenicline (3 nM var, second column): −12.265
- YFP fluorescence quenching using CNL001 (10 nM CNL001, first column): −4.862%
- YFP fluorescence quenching using CNL001 (10 nM CNL001, second column): −8.244%
- YFP fluorescence quenching using TC-5619/Bradanicline (10 nM brd): −2.82%
- YFP fluorescence quenching using TC-5619/Bradanicline (30 nM brd): −16.67%
- YFP fluorescence quenching using Facinicline (30 nM fac): 10.17
- YFP fluorescence quenching using Varenicline (30 nM var, first column): −4.433
- YFP fluorescence quenching using Varenicline (30 nM var, second column): −6.153
- YFP fluorescence quenching using CNL001 (50 nM CNL001, first column): −3.807%
- YFP fluorescence quenching using CNL001 (50 nM CNL001, second column): −2.871%
- YFP fluorescence quenching using ABT-126 (50 nM abt): −21.22%
- YFP fluorescence quenching using CNL001 (100 nM CNL001, first column): −7.924%
- YFP fluorescence quenching using CNL001 (100 nM CNL001, second column): 2.11%
- YFP fluorescence quenching using CNL002 (100 nM CNL002): −9.7%
- YFP fluorescence quenching using ABT-126 (100 nM abt): −19.7%
- YFP fluorescence quenching using AZD-0328 (100 nM azd0328): 3.19%
- YFP fluorescence quenching using TC-5619/Bradanicline (100 nM brd): −0.02%
- YFP fluorescence quenching using Facinicline (100 nM fac): 24.77
- YFP fluorescence quenching using ABT-126 (300 nM abt): −15.55%
- YFP fluorescence quenching using AZD-0328 (300 nM azd0328): 4.79%
- YFP fluorescence quenching using TC-5619/Bradanicline (300 nM brd): −12.37%
- YFP fluorescence quenching using Facinicline (300 nM fac): 51.04
- YFP fluorescence quenching using Varenicline (300 nM var, first column): −0.861
- YFP fluorescence quenching using Varenicline (300 nM var, second column): −1.308
- YFP fluorescence quenching using Varenicline (500 nM var, first column): 0.733
- YFP fluorescence quenching using Varenicline (500 nM var, second column): −4.633
- YFP fluorescence quenching using CNL001 (1 uM CNL001, first column): 11.047%
- YFP fluorescence quenching using CNL001 (1 uM CNL001, second column): 8.04%
- YFP fluorescence quenching using CNL002 (1 uM CNL002): −8.37%
- YFP fluorescence quenching using ABT-126 (1 uM abt): −14.31%
- YFP fluorescence quenching using TC-5619/Bradanicline (1 uM brd): 31.23%
- YFP fluorescence quenching using TC-6987 (1 uM tc6987): 13.01
- YFP fluorescence quenching using Varenicline (1 uM var, first column): −4.512
- YFP fluorescence quenching using Varenicline (1 uM var, second column): 0.02
- YFP fluorescence quenching using Facinicline (10 uM fac): 79.76
- YFP fluorescence quenching using TC-6987 (10 uM tc6987): 14.73
- YFP fluorescence quenching using CNL002 (30 uM CNL002): 3.4%
- YFP fluorescence quenching using AZD-0328 (30 uM azd0328): 76.78%
- YFP fluorescence quenching using Facinicline (30 uM fac): 81.7
- YFP fluorescence quenching using TC-6987 (500 uM tc6987): 14.29
- percent quench of YFP fluorescence, 30 nM TC-6683 (TC-6683 30 nM): 0.365%
- percent quench of YFP fluorescence, 300 nM TC-6683 (TC-6683 300 nM): −6.865%
- percent quench of YFP fluorescence, 3 uM TC-6683 (TC-6683 3 uM): −4.927%
- percent quench of YFP fluorescence, 30 uM TC-6683 (TC-6683 30 uM): −11.259%
- percent quench of YFP fluorescence, 100 uM TC-6683 (TC-6683 100 uM): −11.894%
- percent quench of YFP fluorescence, 10 uM ach: 6.81%
- percent quench of YFP fluorescence, 100 uM ach: 1.19%
- percent quench of YFP fluorescence, 1 mM ach: −14.05%
- percent quench of YFP fluorescence, 3 mM ach: 2.37%
